Experimental data published in the domain aggregation screens of Martell et al. (2025).

Experiment: soluble fraction after stress (log2 fold change); higher = more stays soluble; pooled small domains, quantitative proteomics
Conditions: stress: 50 degC
Procedure, shortened: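 Custom libraries of small protein domains were pooled and measured in a high-throughput format, with quantitative proteomics as the read-out. Each library was stressed at 50°C. The value is the log2 fold change in the amount of each protein that stays soluble after stress, used as a measure of aggregation propensity; higher values mean more of the protein stays soluble.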

Compared with “HMEQWVSIEVEPGIRLDVALTEATQKSRSFIQNLIAEQRVLVNGQPKKANYKVRPGDHVELNYPEPT”, “HMARKTIFHSLLGELEQRIGRLPAGTILPAEQALADEYGVSKPTLRRALAELAEHGLITKENGIGSVVI” is lower in “soluble fraction (log2)” value: 0.0849 for the first, -0.45 for the second.

First: HMSFDTFKKVFSNLVEKSGYSDAEIARRLGVNRSTISRWKSGEQSPPLPKVKEIANFFGVSPMVFVD
Second: HMHIDQVIRERRLALGLTQEELANKIGVSAPAVSKWEKRVSYPDITLLPALARILGTDVNTLLTFS
The “soluble fraction (log2)” value of the first is higher: 0.0554 for the first, -0.365 for the second.

Going from “HMDQTKYDAIITEAKKLTAEGQYKESEEKLATIPVSDLGKPHYSIVKETVEKLNNQNNEGLKRQEEVAVE” to “HMEEPEFEPYVVRLTAIALNVRTGPGTQYPVAMVIRGGGAFTIVAEENGFGLLKSGAGWIMLQHTERV”, the “soluble fraction (log2)” value falls from -0.02 to -0.434.

Going from “HMKVEIVRVVKDIHIGDEITKDMVRTVEVGGYNLPDGVVKDTATVIGRFASADMVPGDYIISSKIADAP” to “HMEILVSTRRHEIASLLSRKKRVSFFELFPEKTKEYVVATFLAILEMAKAREVNITQEDTFDEIIVEEA”, the “soluble fraction (log2)” value falls from -0.121 to -0.43.

Compared with “HMEVPQKTLEILEPWRGRKGFLIPVLQAVQHEFGYVPKEAIETVSREMKMPTAEIYGVVTFYAQFH”, “HMEILNYVVSDGQSGIRIDRYLSDSNEDLSRSYIQKLLKEQKVTVQGTFVKANYKVQAGDVITVEVPDMA” is lower in “soluble fraction (log2)” value: -0.493 for the first, -0.946 for the second.

Going from “HMTVLIDEQSSDGLLKITVTANTAVKSITIADELLEDKEQLEDYLILVLNKAIARANQVNQTELDAVAK” to “HMGESEWIVKWRGEKRDEERLQESELVRDDPEHRISVVRPRDDVDASAWLNRWRKSRYVQYIQPNHRVTIS”, the “soluble fraction (log2)” value falls from 0.317 to 0.0613.

Compared with “HMASVAKHIRRLRTERHMTQGDLAEKLFVTRQTVSAWETGKAQPDLETLERIAVVLGVEVTELIYGAP”, “HMGKTEMPFSTFLTEVDKGNIVSVDIRGSEISGNFRDGKGFKTYSPNYPNLVEKLSAKGVAITAGPR” is higher in “soluble fraction (log2)” value: -0.0295 for the first, 0.187 for the second.

Compared with “HMKPSKTVYTTANLNLRNGASMSAAVYTSVSRGTALATTGRTTSGWTQITHRGRTLWASSKYLTTTTPP”, “HMNLEIGAIIKSLRAKHKYTQEQLSAFLGVTPQAVSRWEAGNGYPDIELLPAIARFFEVSTDELLGL” is higher in “soluble fraction (log2)” value: -2.68 for the first, -0.428 for the second.

Compared with “HMSSEASALRGWLQTSQYQGSVTLFANALNVPLKTVEDWVYGRSKPSLQHWSQLYEATGLPEYQQ”, “HMKGILVPASSIISDGDKNYVWTVEKGKAKKVEVTLGNADAENQEISSGLTKDSKVITNPTDSLKDGQEV” is higher in “soluble fraction (log2)” value: -0.18 for the first, 0.162 for the second.

Going from “HMERNAEDFAAKYQEIYQDMFRFALYTLKNRQEAEDVVSETVLDAWKGIEGLKNESAFSAWMFRILVNK” to “HMVDIIMDLLEAVAQARPADAFIKSLHIQYQERGGLSKKQLQGLYGKAAKTAGIPPGKLATLEAIILKRP”, the “soluble fraction (log2)” value falls from 0.152 to -1.38.

Going from “HMISDQENDLNLKHLFDTADQNKDGLILESELKMLMTNLEINKETYDTVMKQITPAGMDYKTFSSL” to “HMDIFFEKIFNILIGYNQNQENLISEKSILNFHLSHKSNSNFEYIPDEKTPKYIWKYLSNYNLLE”, the “soluble fraction (log2)” value falls from 0.0963 to -0.359.

First: HMLADTNIHTIALKHRLANEVVEQVRPFLPETATIRAYDNMLILKSDRATLANVEQLIKKLDT
Second: HMAGTPAIVKWFNPTKGFGFVTPKEAGSDALLHASVLAKRGKRWLQEGTLVEVLIEEGPKGLVVSELLTIE
The “soluble fraction (log2)” value of the first is higher: 0.0983 for the first, -0.748 for the second.

Going from “HMDQHPYGEDSFRGDNPPAGFDIKGNEDSMKFHEPSSPWYGRTIAEVWFRSAAAAEAAGFVNAV” to “HMGKTKFTEMSALELKAYAELNNNSMHWVYRMLYIGGGDVGFRKGMKELGYSGKFIWMTLERLKKS”, the “soluble fraction (log2)” value falls from -0.113 to -1.32.

First: HMSSDDEAFKRELVGLIPHLRAFARTLTGDPTAADDLAQDAMMKAWDARASYQMGTNMKAWTFMILRNQFY
Second: HMLLNPFERLTERELEIADLYAKGYGNLEIANFLSIKQNTVSTYKKRIFEKLGIDNLVELIELIKNY
The “soluble fraction (log2)” value of the first is lower: -2.22 for the first, 0.148 for the second.

Going from “HMEFFIIDHNGQQAGPFSFDQLVQKGISPETLVWKQGMADWNPAWKVEELKAVLEAVEANQSNQKAQ” to “HMNKEKLLEMFESMSIIIVQSLEEKEQTEDRIETELFNEAKTPRYSTLTKQDIQSVIRNILITVGV”, the “soluble fraction (log2)” value falls from 0.462 to -1.84.

“HMNTIIHPIRLAYVDSGSIKSMAEQAEIDVKILTSEANSQIFWAIGDEKQIDRLYNLISQVDIIQNK” and “HMSNEYLMPNLIGMSWDEAKSKYSQYMTLVPEQEWSEVTKDQIFDQEYPEGRKVKIGTEVTVKVSMGI” are within 0.2 log units of each other in “soluble fraction (log2)” value: -0.211 for the first, -0.192 for the second.

First: HMNELVEATITTQTGRLDKVLTTIFPQYSRSQIQQLLEQGNILVNETLQKGKYKVKAGDKISLTEPAIKE
Second: HMKVVEKHIVPQIQNPIRLQEYASSIFKTITTRSGIKKAIKKQLILLNRKPANTGDWIKEGQLLELLAEE
The “soluble fraction (log2)” value of the first is higher: 0.111 for the first, -0.242 for the second.

Going from “HMDNWLSGLAVEADRMILTQPGEVFDRLSRAFEATLIRRALASTGGRRIEAAHLLGIGRNTITRKIQDLGL” to “HMSRVSVDGEEVNFEGEIPDDPSRIYELLMGALSEQSRVVVKFFVDGKDALLDEGFPSRYQMIEAESV”, the “soluble fraction (log2)” value rises from -2.49 to -0.285.

Going from “HMGGKWKLRILLALENSAQDALRYGEIKNIVSGITDMMLSQSLRELTADGLIERRQYQEIPPKVEYRLS” to “HMSEEIKVPNFVGSTFEKAQALAQETGLEIARGEDVYSPDQEEGKITSQNPTADSVVSPGKLITVYVSKG”, the “soluble fraction (log2)” value rises from -2.51 to 0.00159.

“HMIETIIGAEGKVLETIDNFNQKGVVALAGKEWTARSADASIIPEGAKVSVVEISGVKLIVTQN” and “HMGNIKVPSVMGMTLEGAEKVAKDNGAVIEVLEYKESTEEDGTIIEQSPKADMTVATLEKISVVISGK” are within 0.2 log units of each other in “soluble fraction (log2)” value: 0.067 for the first, -0.105 for the second.

Going from “HMSAPVFRITPAGVVVNGLKRSDILTLTRIDGAMNTLPHNAGEVLVSTEGLAKGVYVITAGGKSLKFLV” to “HMNEKTGTLTVYSSPGWAKVYIDGEYKGITPVMANLTYGDHYVKLTLDGYDSIGNHIDVNSPDQSYTGKF”, the “soluble fraction (log2)” value rises from -1.36 to -0.494.

Compared with “HMSPFYILDEVEAALDDTNLGRLLEIYEELRENSQLLVITHQKRTMEVGDALYGVTMRGDGVSAVISQRLR”, “HMQSITAGDKVRVKNYTVSGGKKRGKVYGGAGTFVVYYEKYDVISVTGDRVVIGIGKAVTAAVHIDDLEK” is lower in “soluble fraction (log2)” value: 0.303 for the first, -1.15 for the second.

First: HMQGRIYLNPDLAEKLRAQYAAYPHWSYLLHTENLGALVRKTESLGPMPSYSTILRYMHANDMRKRNKP
Second: HMGSQLYTLEVEADEKISLIENNPLLIQKIYLKDNNLFSYKIASSSKTEIASIEKELEKNPSIKRLETA
The “soluble fraction (log2)” value of the first is lower: -1.6 for the first, -0.181 for the second.

First: HMKTPETSEYVVQAGDSLRRILTERYGAKEQDLPYLYRQFRLLNPKVSSLDNIHAGTKVRIPLVASVL
Second: HMREVTVGSAVRLKKGAKTYSGGSLASFVYERNHQVTQLSGDRAVISFKGTVVAAVHKDDLIL
The “soluble fraction (log2)” value of the first is higher: 0.132 for the first, -0.916 for the second.

Going from “HMISLNEDQKLAILNEWNQRPDDPPFIKELIELVFPDIPEEAKTGRSRYGIAIKKFLAEKSLQAKV” to “HMDQVLHQLVEVLRRSEIRISPAETLDAFKVLRNVGIDNKSLLREALALTLAKSIHEKIIFYETFDEFFT”, the “soluble fraction (log2)” value falls from -0.305 to -1.16.

Going from “HMHAPIAELKKVFKEEFADQEVTVRQLAGSVLLSGNVKTAELRENLESVAKQFFPRVINNLKLI” to “HMTLDEDYFYYTLKAKEGYYRLYKKLGVDRKIIDSLNPNLKEMGLQVGMVIRVPKSQTSDLSVKNSLLVE”, the “soluble fraction (log2)” value falls from -0.000214 to -1.4.

Going from “HMELVIGESLAVELLRPGKEDGQALGYLPDGSMVVVNNGRAFVGKRVTAEIIGVIRSAGGKMVFSNLLGE” to “HMKNVEEMILGKLKRKVSENLENASFEEIILVDAEKSVYKGIIKANYIEYYFRVNLSTGEVLSWKLK”, the “soluble fraction (log2)” value rises from -2.68 to -0.373.

Going from “HMLLNLSPIETQVLRLIQQDKKVTYESIGKELTIGQTKVYKVLGHLKELNVIERIGGRTYGHWHILL” to “HMRYVVQVATFSSKNNAIRAADDLAGFVVVSNGYYRVRTGPYADRGEANAALAKARKAGYTDAFVDTS”, the “soluble fraction (log2)” value rises from -1.03 to -0.798.

First: HMDSLSLTELRIDSASPWIGNRISDFSPYAGELVIMIIRGEETIVPNGDTIILDKDLLVIYSS
Second: HMSHGNAALTPRQRLRLARLVVDDQWSVSAAAEFFRVSYPTAAKWARRYVELGPAGMADRSS
The “soluble fraction (log2)” value of the first is lower: -2.18 for the first, -1.42 for the second.

First: HMSKHATLLEALADLSVKLKPHSQLPSERALSEEYGVSRMTLRRAIDVLQARGYIYSVPSKGLFVSEP
Second: HMSRYAFEGNVVRLNQKDFDSWKALFTNIDLVSELTRLDIEFTHDKPKNWFSTASAKLNYQNKNAY
The “soluble fraction (log2)” value of the first is higher: -1.74 for the first, -2.27 for the second.

Compared with “HMDMAYEVVKAFHDLQDYKDVKGGKVYHHYDVGDTYPRQGLDPAPDETRIEELLSSGNAQGVPLIAEV”, “HMGRKEIIVPNLLGKYAIEAGTILKNAGLLEGQAREENSDTYPAGQIMDQFPKANTPANENDKVDYVVSI” is higher in “soluble fraction (log2)” value: 0.0503 for the first, at least 0.62 for the second.

Compared with “HMHDRRSGKVKWYSDRKGYGFIDLDGGEVFIHRSALIAFGALRLQAEDIITITVRETDRGLVVDQLFGIER”, “HMNHNPSIARKISREIKRGAPPESLLNLARTVNDSYYRSLSFVSIAYSIKGKKSKELFEEAISNLT” is higher in “soluble fraction (log2)” value: -2.03 for the first, -0.161 for the second.

Compared with “HMSVFMIIVLKQHAPQEFVDMLMSSIKAKGVQIDVSKGARKTILGLVGNTSVIDREQIAGYEYVDKVIRV”, “HMLPAGSDAILRYLSSGAVKGIGVATAARIVEKFGDETLRILEEEPGRLAEIKGITAAKAKAIGEAFAGQ” is higher in “soluble fraction (log2)” value: -0.85 for the first, -0.168 for the second.

First: HMEEEDELALFLREERKNYDLTLTDVHEKTGIPQKVLKEFQWGDAQLTDRQRYTLTQYVEEAREYFQENA
Second: HMNLTSSDIQKILSYALLADNSITLNSIEESMASLKLKKMSAEQLIELLEVSSMVLRNTNNSWSIL
The “soluble fraction (log2)” value of the first is higher: 0.0369 for the first, -1.95 for the second.
